How the values were obtained:
[1] = molecular target: T1, α5β1 sites on monocytes (Homo sapiens, UniProt P05556+P08648); test: Phase I study: saturation of α5β1 sites on monocytes by flow cytometry; type: in vivo; conditions: 10 mg/kg dosage
T1 construct: endogenous in cells; host or cells: CD14+ monocytes in peripheral blood of human patients
Procedure: The integrin α5β1 is also expressed on monocytes in the peripheral blood. To determine the dose at which the α5β1 sites on these circulating cells is saturated by M200, samples of peripheral blood were taken before the first dose on Study Day 1, Study Days 2 and 8, just before each subsequent dose, and on Study Day 43. The saturation of α5β1 sites on monocytes was determined by flow cytometry. The monocytes were identified by using antibodies to CD14. Bound M200 on the monocyte surface was detected by adding labeled anti-human IgG4. Unoccupied (free) α5β1 on the cells was detected by adding labeled IIA1. The percentages of monocytes and lymphocytes expressing α5β1 was also assessed.

[2] = Phase I dose-escalation study: safety / adverse events; type: in vivo, human
Procedure: The dosing levels and schedule used in the study were as follows. M200 was administered to the 21 patients on days 1, 15, 22, 29, and 36. The dosing levels and numbers of patients per level were: 0.5 mg/kg (1 patient), 1.0 mg/kg (2 patient), 2.5 mg/kg (3 patients), 5.0 mg/kg (3 patients), 10.0 mg/kg (6 patients) and 15 mg/kg (6 patients). The dose was administered as an intravenous infusion over 1 hour. The first and second doses were separated by a two week period to allow sampling for single-dose pharmacokinetic data. The real-time PK measurements performed following the first dose were used to predict each patient's peak serum concentration following the fifth dose. If the predicted peak serum concentration following the fifth dose was <750 μg/mL, the patient received all 5 doses of M200. The remaining 3 doses were given weekly and followed by a 45-day evaluation period.
Adverse events were graded using the National Cancer Institute (NCI) Common Terminology Criteria for Adverse Events (CTCAE), version 3.0. Dose-limiting toxicity was defined as any Grade-3 or Grade-4 adverse event, excluding scheduled hospitalizations or elective surgeries. Grade-3 or Grade-4 adverse events thought to be unrelated to M200 were excluded where appropriate following a review with the medical monitor and regulatory agencies.

[3] = predicted human serum levels of M200 from monkey PK data; parameters: species or system humans
Procedure: At the highest dose in humans (15.0 mg/kg), the mean peak after 5 doses was predicted to be 592 μg/mL with the range of variability in humans predicted as 320 to 829 μg/mL. Table 3, was compiled using PK data from the monkey studies to predict the peak and tough serum concentrations (Cmax and Cmin, respectively) for each dose at each dose level in humans.

[4] = tested on: activated endothelial cells; conditions: regardless of the growth factor stimulus; cited from earlier work
[5] = molecular target: α5β1 integrin found in rabbit (Oryctolagus cuniculus, UniProt A0A5F9C3C4+A0A5F9CXX2); test: species cross-reactivity of anti-α5β1 antibody; type: binding
[6] = tested on: LOX; test: M200 in vitro cell proliferation assay; type: cell-based; conditions: LOX (melanoma)
Procedure: Cancer cell lines were plated at a density of 2500 cells/well in 96-well plates in IMDM with supplements in the presence or absence of 10% FBS. At the time of plating, cells were challenged with various concentrations M200 or a non-function blocking anti-α5 antibody, VC5. […] All growth studies were done at least 3 times in triplicate.

T1 sequence (P08648 42-894 limits assumed): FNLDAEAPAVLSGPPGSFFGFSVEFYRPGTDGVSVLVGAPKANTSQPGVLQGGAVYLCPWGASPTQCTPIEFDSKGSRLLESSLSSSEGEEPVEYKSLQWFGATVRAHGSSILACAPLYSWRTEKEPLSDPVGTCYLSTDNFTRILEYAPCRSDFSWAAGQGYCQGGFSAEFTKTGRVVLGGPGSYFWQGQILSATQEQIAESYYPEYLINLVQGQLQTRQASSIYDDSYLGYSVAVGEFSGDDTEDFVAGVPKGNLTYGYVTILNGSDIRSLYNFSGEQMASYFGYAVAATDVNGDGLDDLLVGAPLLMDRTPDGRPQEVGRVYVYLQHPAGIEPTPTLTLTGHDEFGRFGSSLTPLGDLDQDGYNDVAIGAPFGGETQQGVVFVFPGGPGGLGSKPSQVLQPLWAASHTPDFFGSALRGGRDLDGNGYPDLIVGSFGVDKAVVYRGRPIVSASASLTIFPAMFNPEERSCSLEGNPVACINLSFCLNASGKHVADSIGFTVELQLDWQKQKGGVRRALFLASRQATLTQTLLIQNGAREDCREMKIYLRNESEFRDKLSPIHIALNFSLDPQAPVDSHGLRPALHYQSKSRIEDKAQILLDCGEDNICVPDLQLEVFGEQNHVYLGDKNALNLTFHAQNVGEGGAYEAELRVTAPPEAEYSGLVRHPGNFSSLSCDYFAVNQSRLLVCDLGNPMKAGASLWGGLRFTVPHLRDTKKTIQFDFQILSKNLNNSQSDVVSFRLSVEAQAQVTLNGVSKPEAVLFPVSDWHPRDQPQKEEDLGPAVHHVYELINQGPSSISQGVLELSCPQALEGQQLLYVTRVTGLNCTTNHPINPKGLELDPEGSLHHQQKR
T1 sequence (P08648 895-1049 limits assumed): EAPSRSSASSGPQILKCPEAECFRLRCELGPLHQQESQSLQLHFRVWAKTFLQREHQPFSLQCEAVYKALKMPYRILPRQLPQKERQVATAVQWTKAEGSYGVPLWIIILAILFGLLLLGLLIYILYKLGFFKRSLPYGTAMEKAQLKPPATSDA
T1 sequence (P05556 21-798): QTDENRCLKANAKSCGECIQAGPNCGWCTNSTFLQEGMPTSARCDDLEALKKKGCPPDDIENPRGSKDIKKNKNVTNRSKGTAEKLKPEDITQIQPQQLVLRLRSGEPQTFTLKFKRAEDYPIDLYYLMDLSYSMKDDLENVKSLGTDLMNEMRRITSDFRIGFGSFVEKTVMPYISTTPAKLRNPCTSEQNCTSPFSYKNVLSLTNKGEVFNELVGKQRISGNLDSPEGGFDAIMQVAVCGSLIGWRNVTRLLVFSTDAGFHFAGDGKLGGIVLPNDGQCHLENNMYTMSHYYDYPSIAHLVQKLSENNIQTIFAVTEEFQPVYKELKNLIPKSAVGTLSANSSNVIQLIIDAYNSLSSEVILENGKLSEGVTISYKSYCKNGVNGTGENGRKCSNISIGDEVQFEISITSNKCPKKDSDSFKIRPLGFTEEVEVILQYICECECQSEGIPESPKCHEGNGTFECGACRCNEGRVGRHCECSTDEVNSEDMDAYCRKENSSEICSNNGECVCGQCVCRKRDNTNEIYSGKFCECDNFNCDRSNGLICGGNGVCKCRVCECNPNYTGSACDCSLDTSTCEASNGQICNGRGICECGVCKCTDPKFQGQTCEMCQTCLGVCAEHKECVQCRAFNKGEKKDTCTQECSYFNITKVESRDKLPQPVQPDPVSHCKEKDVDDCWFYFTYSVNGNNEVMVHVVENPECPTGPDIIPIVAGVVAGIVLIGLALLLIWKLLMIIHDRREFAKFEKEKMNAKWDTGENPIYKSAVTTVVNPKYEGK
Sequence of α5β1 integrin found in rabbit (A0A5F9CXX2 1-1041): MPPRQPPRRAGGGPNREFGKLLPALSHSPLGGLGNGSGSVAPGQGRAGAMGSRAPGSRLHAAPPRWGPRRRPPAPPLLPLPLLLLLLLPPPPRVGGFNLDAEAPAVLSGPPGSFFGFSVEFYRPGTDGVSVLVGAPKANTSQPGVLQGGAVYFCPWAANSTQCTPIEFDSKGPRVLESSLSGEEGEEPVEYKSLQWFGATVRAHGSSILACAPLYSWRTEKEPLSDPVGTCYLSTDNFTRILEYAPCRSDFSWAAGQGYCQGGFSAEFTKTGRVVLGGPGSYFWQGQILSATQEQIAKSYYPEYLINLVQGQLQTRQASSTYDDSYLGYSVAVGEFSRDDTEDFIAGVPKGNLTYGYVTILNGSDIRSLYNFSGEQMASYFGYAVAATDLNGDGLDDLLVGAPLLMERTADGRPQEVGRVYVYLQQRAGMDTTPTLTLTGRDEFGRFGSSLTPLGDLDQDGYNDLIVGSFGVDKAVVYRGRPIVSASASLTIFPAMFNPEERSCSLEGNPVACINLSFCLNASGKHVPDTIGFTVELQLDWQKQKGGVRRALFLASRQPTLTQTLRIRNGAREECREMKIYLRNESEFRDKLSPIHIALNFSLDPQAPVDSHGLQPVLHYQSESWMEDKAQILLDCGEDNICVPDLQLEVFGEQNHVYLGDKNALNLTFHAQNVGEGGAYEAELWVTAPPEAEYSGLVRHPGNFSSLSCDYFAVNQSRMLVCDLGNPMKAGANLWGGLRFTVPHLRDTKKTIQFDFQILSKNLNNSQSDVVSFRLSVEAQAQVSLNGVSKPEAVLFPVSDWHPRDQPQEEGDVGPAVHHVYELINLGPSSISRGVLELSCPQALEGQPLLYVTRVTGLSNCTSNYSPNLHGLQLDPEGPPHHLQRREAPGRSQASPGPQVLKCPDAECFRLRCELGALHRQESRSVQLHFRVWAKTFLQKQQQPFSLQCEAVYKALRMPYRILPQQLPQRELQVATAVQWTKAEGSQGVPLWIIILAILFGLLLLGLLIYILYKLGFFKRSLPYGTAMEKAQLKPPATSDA
Sequence of α5β1 integrin found in rabbit (A0A5F9C3C4 21-798): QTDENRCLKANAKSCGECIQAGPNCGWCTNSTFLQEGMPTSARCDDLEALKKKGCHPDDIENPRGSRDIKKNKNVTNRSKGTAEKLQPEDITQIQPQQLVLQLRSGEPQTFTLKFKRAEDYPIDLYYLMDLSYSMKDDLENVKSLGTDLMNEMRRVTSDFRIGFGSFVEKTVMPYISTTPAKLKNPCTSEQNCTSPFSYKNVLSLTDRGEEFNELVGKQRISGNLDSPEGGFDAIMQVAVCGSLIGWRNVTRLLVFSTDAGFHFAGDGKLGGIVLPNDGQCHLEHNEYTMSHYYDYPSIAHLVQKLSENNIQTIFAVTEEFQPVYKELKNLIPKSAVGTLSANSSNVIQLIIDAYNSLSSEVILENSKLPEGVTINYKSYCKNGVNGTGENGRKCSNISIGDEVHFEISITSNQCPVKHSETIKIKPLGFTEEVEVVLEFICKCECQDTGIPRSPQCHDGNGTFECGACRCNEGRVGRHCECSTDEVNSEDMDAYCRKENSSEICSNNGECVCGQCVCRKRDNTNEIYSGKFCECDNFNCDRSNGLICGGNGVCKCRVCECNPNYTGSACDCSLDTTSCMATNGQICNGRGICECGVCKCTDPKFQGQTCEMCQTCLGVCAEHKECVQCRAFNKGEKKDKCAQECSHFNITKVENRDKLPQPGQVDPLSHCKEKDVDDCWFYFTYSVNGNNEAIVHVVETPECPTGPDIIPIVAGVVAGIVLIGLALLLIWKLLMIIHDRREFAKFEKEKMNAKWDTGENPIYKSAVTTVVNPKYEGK

B1: M200: chimeric IgG4 anti-α5β1 antibody derived from IIA1; generic name volociximab (antibody, V domains shown)
VH: MAVLGLLLCLVTFPSCVLSQVQLKESGPGLVAPSQSLSITCTISGFSLTDYGVHWVRQPPGKGLEWLVVIWSDGSSTYNSALKSRMTIRKDNSKSQVFLIMNSLQTDDSAMYYCARHGTYYGMTTTGDALDYWGQGTSVTVSS
VL: MDFQVQIFSFLLISASVIMSRGQIVLTQSPAIMSASLGERVTMTCTASSSVSSNYLHWYQQKPGSAPNLWIYSTSNLASGVPARFSGSGSGTSYSLTISSMEAEDAATYYCHQYLRSPPTFGGGTKLEIKDMSVDMSV
modifications: chimeric antibody
notes: chimeric IgG4 anti-α5β1 antibody derived from IIA1; generic name volociximab
For B1, the monocyte saturation [1] was “monocyte saturation”, the dose-limiting toxicities ([2]; doses up to 15 mg/kg) was “no dose-limiting M200 toxicities were observed” and the tolerability in patients ([2]; doses up to 15 mg/kg) was “well tolerated”. The “adverse events, intensity” value ([2]; fatigue, nausea, constipation, headache and anorexia) was “generally mild to moderate in intensity”, the infusion reaction ([2]; the one patient who received 0.5 mg/kg) was “fever after the first dose” and the “Estimated peak serum level (Cmax) in humans” value (“Estimated peak serum level” for short) ([3]; 0.5 mg/kg, dose number 1) was 11 µg/mL. The “Estimated trough serum level (Cmin) in humans” value (shortened to “Estimated trough serum level”) ([3]; 0.5 mg/kg, dose number 1) was 1.5 µg/mL, the “Estimated peak serum level” value ([3]; 0.5 mg/kg, dose number 2) was 11 µg/mL and the “Estimated trough serum level” value ([3]; 0.5 mg/kg, dose number 2) was 1.6 µg/mL. The “Estimated peak serum level” value ([3]; 0.5 mg/kg, dose number 3) was 12 µg/mL, the “Estimated trough serum level” value ([3]; 0.5 mg/kg, dose number 3) was 2 µg/mL and the “Estimated peak serum level” value ([3]; 0.5 mg/kg, dose number 4) was 13 µg/mL. For the same molecule, the “Estimated trough serum level” value ([3]; 0.5 mg/kg, dose number 4) was 2.1 µg/mL, the “Estimated peak serum level” value ([3]; 0.5 mg/kg, dose number 5) was 13 µg/mL and the “Estimated trough serum level” value ([3]; 0.5 mg/kg, dose number 5) was 2.2 µg/mL. The “Estimated peak serum level” value ([3]; 1.0 mg/kg, dose number 1) was 22 µg/mL, the “Estimated trough serum level” value ([3]; 1.0 mg/kg, dose number 1) was 3 µg/mL and the “Estimated peak serum level” value ([3]; 1.0 mg/kg, dose number 2) was 22 µg/mL. The “Estimated trough serum level” value ([3]; 1.0 mg/kg, dose number 2) was 3 µg/mL, the “Estimated peak serum level” value ([3]; 1.0 mg/kg, dose number 3) was 25 µg/mL and the “Estimated trough serum level” value ([3]; 1.0 mg/kg, dose number 3) was 4 µg/mL. The “Estimated peak serum level” value ([3]; 1.0 mg/kg, dose number 4) was 26 µg/mL, the “Estimated trough serum level” value ([3]; 1.0 mg/kg, dose number 4) was 5 µg/mL and the “Estimated peak serum level” value ([3]; 1.0 mg/kg, dose number 5) was 26 µg/mL. The “Estimated trough serum level” value ([3]; 1.0 mg/kg, dose number 5) was 5 µg/mL, the “Estimated peak serum level” value ([3]; 2.5 mg/kg, dose number 1) was 54 µg/mL and the “Estimated trough serum level” value ([3]; 2.5 mg/kg, dose number 1) was 9 µg/mL. For the same molecule, the “Estimated peak serum level” value ([3]; 2.5 mg/kg, dose number 2) was 57 µg/mL, the “Estimated trough serum level” value ([3]; 2.5 mg/kg, dose number 2) was 10 µg/mL and the “Estimated peak serum level” value ([3]; 2.5 mg/kg, dose number 3) was 64 µg/mL. The “Estimated trough serum level” value ([3]; 2.5 mg/kg, dose number 3) was 13 µg/mL, the “Estimated peak serum level” value ([3]; 2.5 mg/kg, dose number 4) was 67 µg/mL and the “Estimated trough serum level” value ([3]; 2.5 mg/kg, dose number 4) was 14 µg/mL. For the same molecule, the “Estimated peak serum level” value ([3]; 2.5 mg/kg, dose number 5) was 68 µg/mL, the “Estimated trough serum level” value ([3]; 2.5 mg/kg, dose number 5) was 15 µg/mL and the “Estimated peak serum level” value ([3]; 5.0 mg/kg, dose number 1) was 108 µg/mL. The “Estimated trough serum level” value ([3]; 5.0 mg/kg, dose number 1) was 20 µg/mL, the “Estimated peak serum level” value ([3]; 5.0 mg/kg, dose number 2) was 114 µg/mL and the “Estimated trough serum level” value ([3]; 5.0 mg/kg, dose number 2) was 24 µg/mL. For the same molecule, the “Estimated peak serum level” value ([3]; 5.0 mg/kg, dose number 3) was 132 µg/mL, the “Estimated trough serum level” value ([3]; 5.0 mg/kg, dose number 3) was 33 µg/mL and the “Estimated peak serum level” value ([3]; 5.0 mg/kg, dose number 4) was 141 µg/mL. The “Estimated trough serum level” value ([3]; 5.0 mg/kg, dose number 4) was 39 µg/mL, the “Estimated peak serum level” value ([3]; 5.0 mg/kg, dose number 5) was 147 µg/mL and the “Estimated trough serum level” value ([3]; 5.0 mg/kg, dose number 5) was 43 µg/mL. The “Estimated peak serum level” value ([3]; 10.0 mg/kg, dose number 1) was 216 µg/mL, the “Estimated trough serum level” value ([3]; 10.0 mg/kg, dose number 1) was 51 µg/mL and the “Estimated peak serum level” value ([3]; 10.0 mg/kg, dose number 2) was 236 µg/mL. The “Estimated trough serum level” value ([3]; 10.0 mg/kg, dose number 2) was 66 µg/mL, the “Estimated peak serum level” value ([3]; 10.0 mg/kg, dose number 3) was 282 µg/mL and the “Estimated trough serum level” value ([3]; 10.0 mg/kg, dose number 3) was 101 µg/mL. For the same molecule, the “Estimated peak serum level” value ([3]; 10.0 mg/kg, dose number 4) was 317 µg/mL, the “Estimated trough serum level” value ([3]; 10.0 mg/kg, dose number 4) was 131 µg/mL and the “Estimated peak serum level” value ([3]; 10.0 mg/kg, dose number 5) was 346 µg/mL. For the same molecule, the “Estimated trough serum level” value ([3]; 10.0 mg/kg, dose number 5) was 156 µg/mL, the “predicted terminal half-life in humans” value ([3]; 15.0 mg/kg) was “about 13 days” and the “Estimated Cmax range (54-140%) in humans” value ([3]; 15.0 mg/kg, dose number 1) was 175 to 453 µg/mL. The “Estimated peak serum level” value ([3]; 15.0 mg/kg, dose number 1) was 324 µg/mL, the “Estimated trough serum level” value ([3]; 15.0 mg/kg, dose number 1) was 91 µg/mL and the “Estimated Cmax range (54-140%) in humans” value ([3]; 15.0 mg/kg, dose number 2) was 197 to 512 µg/mL. For the same molecule, the “Estimated peak serum level” value ([3]; 15.0 mg/kg, dose number 2) was 366 µg/mL, the “Estimated trough serum level” value ([3]; 15.0 mg/kg, dose number 2) was 126 µg/mL and the “Estimated Cmax range (54-140%) in humans” value ([3]; 15.0 mg/kg, dose number 3) was 243 to 629 µg/mL. For the same molecule, the “Estimated peak serum level” value ([3]; 15.0 mg/kg, dose number 3) was 450 µg/mL, the “Estimated trough serum level” value ([3]; 15.0 mg/kg, dose number 3) was 200 µg/mL and the “Estimated Cmax range (54-140%) in humans” value ([3]; 15.0 mg/kg, dose number 4) was 283 to 733 µg/mL. The “Estimated peak serum level” value ([3]; 15.0 mg/kg, dose number 4) was 524 µg/mL, the “Estimated trough serum level” value ([3]; 15.0 mg/kg, dose number 4) was 268 µg/mL and the “Estimated peak serum level” value ([3]; 15.0 mg/kg, dose number 5) was 592 µg/mL. The “Estimated trough serum level” value ([3]; 15.0 mg/kg, dose number 5) was 332 µg/mL, the “predicted time to steady state concentration” value ([3]; all doses <10.0 mg/kg) was at most 4 weeks and the “predicted time to steady state concentration” value ([3]; doses ≧10.0 mg/kg) was at most 5 weeks. The “apoptosis of activated endothelial cells in vitro” value [4] was “induce apoptosis”, the “recognition of α5β1 integrin found in rabbit” value [5] was “does recognize” and the “% Growth Inhibition +Serum” value ([6]; 10% FBS, 4-day assay) was 35%. For the same molecule, the “% Growth Inhibition −Serum” value ([6]; absence of serum, 2-day rather than 4-day assay) was 40^2%.

— patent publication US7662384B2, “Use of anti-α5β1 antibodies to inhibit cancer cell proliferation” (Facet Biotech Corporation, priority 2004, dated 2010)
